Test results taken from patent US10464978B2, “Peptides and combination of peptides for use in immunotherapy against ovarian cancer and other cancers” (immatics biotechnologies GmbH, priority 2015, dated 2019).

Biological target: HLA-A*02:01 (Homo sapiens, UniProt P04439, D140Y/D185E/D98H/E176V/E277Q/G131W/G231S/I119V/I121R/I166T/I218V/L300P/L318F/N151K/N90K/P208A/P217A/Q86G/Q94H/R138H/R169H/T345S)
Experiment: MHC binding assay: UV-ligand exchange with beta2m ELISA (peptide exchange yield)
Conditions: binding to HLA-A*02:01
Procedure, shortened: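 Values give exchange yield, measured by β2m ELISA: 100-fold-diluted monomers bound to streptavidin plates (1h, 37° C), probed with HRP anti-β2m at 2 ug/ml and read at 450 nm after TMB. Monomers came from UV-triggered cleavage of a photolabile peptide and exchange for the test peptide.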

For “489 (KMWEELPEVV; listed as Homo sapiens) [compound 489]”, the “Peptide exchange (MHC class I binding score, peptide exchange yield)” value (“Peptide exchange” below) was ““+++” (≥50 = +++)”.
With “490 (FLLQHVQEL; listed as Homo sapiens) [compound 490]” the “Peptide exchange” value was ““+++” (≥50 = +++)”.
In the case of “491 (GLNDRSDAV; listed as Homo sapiens) [compound 491]”, the “Peptide exchange” value is reported as ““++” (≥20% = ++)”.
“492 (SLFDGFADGLGV; listed as Homo sapiens) [compound 492]” was tested, and the “Peptide exchange” value was ““+++” (≥50 = +++)”.
With “493 (GLLGEKTQDLIGV; listed as Homo sapiens) [compound 493]” the “Peptide exchange” value was ““+++” (≥50 = +++)”.
For “494 (ALQPEPIKV; listed as Homo sapiens) [compound 494]”, the “Peptide exchange” value was ““++” (≥20% = ++)”.
For “495 (FIFSEKPVFV; listed as Homo sapiens) [compound 495]”, the “Peptide exchange” value was ““+++” (≥50 = +++)”.
For “496 (FLVEKQPPQV; listed as Homo sapiens) [compound 496]”, the “Peptide exchange” value was ““+++” (≥50 = +++)”.
“497 (GLLEKLTAI; listed as Homo sapiens) [compound 497]” was tested, and the “Peptide exchange” value was ““+++” (≥50 = +++)”.
“498 (KLWTGGLDNTV; listed as Homo sapiens) [compound 498]” was tested, and the “Peptide exchange” value was ““+++” (≥50 = +++)”.
“499 (KIFDIDEAEEGV; listed as Homo sapiens) [compound 499]” was tested, and the “Peptide exchange” value was ““++” (≥20% = ++)”.
With “500 (SLMEDQVLQL; listed as Homo sapiens) [compound 500]” the “Peptide exchange” value was ““+++” (≥50 = +++)”.
For “501 (LLDPNVKSIFV; listed as Homo sapiens) [compound 501]”, the “Peptide exchange” value was ““+++” (≥50 = +++)”.
In the case of “502 (RLLAQVPGL; listed as Homo sapiens) [compound 502]”, the “Peptide exchange” value is reported as ““+++” (≥50 = +++)”.
With “503 (SLNHFTHSV; listed as Homo sapiens) [compound 503]” the “Peptide exchange” value was ““+++” (≥50 = +++)”.
For “504 (GLSDGNPSL; listed as Homo sapiens) [compound 504]”, the “Peptide exchange” value was ““++” (≥20% = ++)”.
For “505 (SLAPGDVVRQV; listed as Homo sapiens) [compound 505]”, the “Peptide exchange” value was ““++” (≥20% = ++)”.
For “506 (KLLGKVETA; listed as Homo sapiens) [compound 506]”, the “Peptide exchange” value was ““+++” (≥50 = +++)”.
“507 (KLIDDQDISISL; listed as Homo sapiens) [compound 507]” was tested, and the “Peptide exchange” value was ““+++” (≥50 = +++)”.
“508 (ILAQEQLVVGV; listed as Homo sapiens) [compound 508]” was tested, and the “Peptide exchange” value was ““+++” (≥50 = +++)”.
With “509 (FLFDTKPLIV; listed as Homo sapiens) [compound 509]” the “Peptide exchange” value was ““+++” (≥50 = +++)”.
With “510 (KLYSVVSQL; listed as Homo sapiens) [compound 510]” the “Peptide exchange” value was ““++” (≥20% = ++)”.
With “511 (FLDPYCSASV; listed as Homo sapiens) [compound 511]” the “Peptide exchange” value was ““++” (≥20% = ++)”.
In the case of “512 (SLSEIVPCL; listed as Homo sapiens) [compound 512]”, the “Peptide exchange” value is reported as ““+++” (≥50 = +++)”.
With “513 (SLWPSPEQL; listed as Homo sapiens) [compound 513]” the “Peptide exchange” value was ““++” (≥20% = ++)”.
